Data published in the supplement of paper PMC9112550, “Optimization of the antimicrobial peptide Bac7 by deep mutational scanning” (BMC Biology, 2022).

System: Escherichia coli TOP10
Experiment: shrunken log2 fold change of peptide-encoding DNA abundance (4.5 h post-induction vs induction); higher = less antimicrobial activity (less host growth inhibition)
Settings: time post-induction: 4.5 h; library: site-saturation at positions 5, 18, 19, 20
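Further: peptides expressed intracellularly from a pBAD plasmid library in pooled LB shake-flask culture, induced with 0.3% L-arabinose, DNA abundance read by NGS, three biological replicates, DESeq2 with apeglm shrinkage.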

Point of comparison: RRIRIRPPRLPRPRPRPCFHPRP, “shrunken log2 fold change” value -0.532. Against it:
- RRIRHRPPRLPRPRPRPLSMPRP — within 0.2 log units, -0.396
- RRIRHRPPRLPRPRPRPHFTPRP — within 0.2 log units, -0.67
- RRIRYRPPRLPRPRPRPAPWPRP — higher, -0.0627
- RRIRYRPPRLPRPRPRPVFVPRP — within 0.2 log units, -0.458
- RRIRIRPPRLPRPRPRPPQPPRP — higher, 0.343
- RRIRGRPPRLPRPRPRPEMHPRP — higher, 0.242
- RRIRIRPPRLPRPRPRPLNRPRP — within 0.2 log units, -0.476
- RRIRKRPPRLPRPRPRPNVSPRP — higher, 0.106
- RRIRARPPRLPRPRPRPLKTPRP — higher, 0.219
- RRIRLRPPRLPRPRPRPLHMPRP — higher, -0.112
- RRIRHRPPRLPRPRPRPCAQPRP — higher, 0.000337
- RRIRERPPRLPRPRPRPQCFPRP — within 0.2 log units, -0.702
- RRIRERPPRLPRPRPRPNALPRP — higher, -0.247
- RRIRNRPPRLPRPRPRPHHMPRP — lower, -1.41
- RRIRVRPPRLPRPRPRPCSFPRP — higher, 0.0114
- RRIRMRPPRLPRPRPRPPYQPRP — higher, 0.0406
- RRIRQRPPRLPRPRPRPHWFPRP — higher, 0.0358
- RRIRTRPPRLPRPRPRPMKYPRP — higher, -0.0467
- RRIRCRPPRLPRPRPRPWYFPRP — higher, -0.264
- RRIRPRPPRLPRPRPRPTNQPRP — higher, -0.182
- RRIRQRPPRLPRPRPRPKYSPRP — higher, -0.0125
- RRIRMRPPRLPRPRPRPGSGPRP — higher, 1.34
- RRIRERPPRLPRPRPRPHMIPRP — higher, 0.0284
- RRIRRRPPRLPRPRPRPWCKPRP — higher, -0.0285
- RRIRHRPPRLPRPRPRPRSMPRP — higher, -0.241
- RRIRQRPPRLPRPRPRPKTGPRP — higher, -0.151
- RRIRARPPRLPRPRPRPEIQPRP — higher, 1.71
- RRIRCRPPRLPRPRPRPQNEPRP — within 0.2 log units, -0.389
- RRIRCRPPRLPRPRPRPWLNPRP — lower, -0.752
- RRIRDRPPRLPRPRPRPKKFPRP — higher, 0.117
- RRIRYRPPRLPRPRPRPCTAPRP — lower, -1.4
- RRIRERPPRLPRPRPRPPIAPRP — higher, 0.13
- RRIRYRPPRLPRPRPRPWICPRP — within 0.2 log units, -0.593
- RRIRHRPPRLPRPRPRPLCEPRP — higher, 0.197
- RRIRLRPPRLPRPRPRPDEEPRP — higher, 0.138
- RRIRCRPPRLPRPRPRPTGYPRP — higher, -0.0363
- RRIRSRPPRLPRPRPRPAVFPRP — higher, 0.114
- RRIRWRPPRLPRPRPRPMCVPRP — higher, 0.0501
- RRIRLRPPRLPRPRPRPQMYPRP — higher, -0.115
- RRIRMRPPRLPRPRPRPFYGPRP — higher, 0.0715
- RRIRNRPPRLPRPRPRPACAPRP — higher, 0.3
- RRIRNRPPRLPRPRPRPCDMPRP — higher, 0.0184
- RRIRHRPPRLPRPRPRPSVDPRP — higher, 0.0776
- RRIRYRPPRLPRPRPRPRSAPRP — higher, -0.0647
- RRIRSRPPRLPRPRPRPDLYPRP — higher, -0.171
- RRIRGRPPRLPRPRPRPYHYPRP — higher, -0.149
- RRIRMRPPRLPRPRPRPCTVPRP — higher, -0.0102
- RRIRMRPPRLPRPRPRPCTCPRP — higher, 0.0043
- RRIRCRPPRLPRPRPRPVWIPRP — within 0.2 log units, -0.441
- RRIRSRPPRLPRPRPRPSKYPRP — within 0.2 log units, -0.345
- RRIRDRPPRLPRPRPRPRCTPRP — higher, -0.054
- RRIRHRPPRLPRPRPRPQWIPRP — higher, -0.031
- RRIRFRPPRLPRPRPRPPNQPRP — higher, 0.23
- RRIRLRPPRLPRPRPRPFRFPRP — higher, -0.212
- RRIRRRPPRLPRPRPRPKNAPRP — higher, 0.0423
- RRIRWRPPRLPRPRPRPKLKPRP — higher, 0.507
- RRIRNRPPRLPRPRPRPGKIPRP — higher, -0.284
- RRIRVRPPRLPRPRPRPFSFPRP — higher, 1.26
- RRIRFRPPRLPRPRPRPFAFPRP — higher, -0.239
- RRIRYRPPRLPRPRPRPSMMPRP — lower, -1.21
- RRIRSRPPRLPRPRPRPGVNPRP — within 0.2 log units, -0.398
- RRIRCRPPRLPRPRPRPASNPRP — within 0.2 log units, -0.342
- RRIRRRPPRLPRPRPRPAMRPRP — higher, 0.538
- RRIRIRPPRLPRPRPRPCKLPRP — higher, -0.167
- RRIRARPPRLPRPRPRPNSRPRP — higher, 0.0429
- RRIRDRPPRLPRPRPRPLVDPRP — higher, 0.11
- RRIRTRPPRLPRPRPRPRHNPRP — higher, -0.293
- RRIRYRPPRLPRPRPRPEGIPRP — higher, -0.0155
- RRIRRRPPRLPRPRPRPNASPRP — higher, -0.0114
- RRIRDRPPRLPRPRPRPGREPRP — higher, 0.603
- RRIRYRPPRLPRPRPRPPQVPRP — higher, -0.0496
- RRIRRRPPRLPRPRPRPNLAPRP — higher, 0.176
- RRIRDRPPRLPRPRPRPLLRPRP — higher, 0.0308
- RRIRARPPRLPRPRPRPIYSPRP — higher, -0.227
- RRIRFRPPRLPRPRPRPLLTPRP — higher, -0.166
- RRIRWRPPRLPRPRPRPGITPRP — higher, 0.0178
- RRIRNRPPRLPRPRPRPSDAPRP — higher, 0.0594
- RRIRCRPPRLPRPRPRPCEIPRP — higher, 0.0656
- RRIRTRPPRLPRPRPRPSTVPRP — higher, 0.0213
- RRIRWRPPRLPRPRPRPNPCPRP — higher, -0.0647
- RRIRRRPPRLPRPRPRPCMKPRP — higher, -0.0288
- RRIRERPPRLPRPRPRPEIKPRP — higher, -0.0374
- RRIRPRPPRLPRPRPRPAKYPRP — higher, -0.317
- RRIRGRPPRLPRPRPRPECQPRP — higher, 0.381
- RRIRTRPPRLPRPRPRPRYKPRP — lower, -0.909
- RRIRKRPPRLPRPRPRPNYNPRP — higher, 0.0883
- RRIRARPPRLPRPRPRPLCLPRP — higher, 0.132
- RRIRGRPPRLPRPRPRPVKSPRP — higher, 0.0201
- RRIRCRPPRLPRPRPRPKFPPRP — higher, -0.0293
- RRIRLRPPRLPRPRPRPENNPRP — within 0.2 log units, -0.406
- RRIRERPPRLPRPRPRPIQLPRP — within 0.2 log units, -0.446
- RRIRRRPPRLPRPRPRPMIDPRP — higher, -0.1
- RRIRARPPRLPRPRPRPGRSPRP — higher, 0.206
- RRIRRRPPRLPRPRPRPKIYPRP — higher, -0.127
- RRIRKRPPRLPRPRPRPNNFPRP — higher, -0.0233
- RRIRPRPPRLPRPRPRPHTYPRP — lower, -0.942
- RRIRERPPRLPRPRPRPMFYPRP — higher, -0.0786
- RRIRNRPPRLPRPRPRPGPCPRP — higher, -0.0814
- RRIRVRPPRLPRPRPRPMNNPRP — within 0.2 log units, -0.694
- RRIRFRPPRLPRPRPRPHVTPRP — higher, -0.211
- RRIRARPPRLPRPRPRPEGNPRP — higher, 0.295
- RRIRNRPPRLPRPRPRPKFKPRP — within 0.2 log units, -0.508
- RRIRARPPRLPRPRPRPNNVPRP — higher, -0.0632
- RRIRHRPPRLPRPRPRPFTSPRP — higher, -0.197
- RRIRRRPPRLPRPRPRPSIYPRP — within 0.2 log units, -0.449
- RRIRIRPPRLPRPRPRPALMPRP — higher, -0.028
- RRIRKRPPRLPRPRPRPRKSPRP — higher, 0.727
- RRIRWRPPRLPRPRPRPYVCPRP — higher, -0.00902
